# Laboratory results from US20180318386A1, “PEPTIDES AND METHODS OF TREATING ENDOMETRIOSIS USING THE SAME” (BIOINCEPT, LLC, priority 2014, published 2018).
# Tests used:
# Test in all cases: PIF affinity resin pull-down, CD14+ cell lysate, LC-MS/MS count
# [1] = target: Protein disulfide-isomerase (human) (UniProt P07237)
# [2] = target: Isoform 2 of Heat shock protein HSP 90-alpha (human) (UniProt P07900)
# [3] = target: Isoform 1 of Vinculin (human) (UniProt P18206)
# Protein S100-A8 (human) = Protein S100-A8 (human) (UniProt P05109)
# [4] = target: Isoform H14 of Myeloperoxidase (human) (UniProt P05164)
# [5] = target: Isoform SV of 14-3-3 protein epsilon (human) (UniProt P62258)
# Annexin A1 (human) = Annexin A1 (human) (UniProt P04083)
# Sequence of Annexin A1 (human) (P04083 2-346 limits assumed): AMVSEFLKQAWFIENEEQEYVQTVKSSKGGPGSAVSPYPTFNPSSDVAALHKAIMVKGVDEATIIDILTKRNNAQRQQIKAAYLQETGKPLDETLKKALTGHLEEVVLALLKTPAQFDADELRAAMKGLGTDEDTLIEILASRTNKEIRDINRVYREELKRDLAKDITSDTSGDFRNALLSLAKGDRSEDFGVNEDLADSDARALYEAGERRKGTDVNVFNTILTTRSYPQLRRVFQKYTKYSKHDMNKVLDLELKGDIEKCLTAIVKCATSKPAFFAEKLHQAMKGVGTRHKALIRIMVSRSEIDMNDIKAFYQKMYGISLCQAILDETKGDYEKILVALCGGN
# [6] = target: Actin, cytoplasmic 2 (human) (UniProt P63261)
# [7] = target: Tropomyosin alpha-4 chain (human) (UniProt P67936)
# Calmodulin (human) = Calmodulin (human) (UniProt P0DP23)
# [8] = target: 78 kDa glucose-regulated protein (human) (UniProt P11021)
# Sequence of 78 kDa glucose-regulated protein (human) (P11021 19-654 limits assumed): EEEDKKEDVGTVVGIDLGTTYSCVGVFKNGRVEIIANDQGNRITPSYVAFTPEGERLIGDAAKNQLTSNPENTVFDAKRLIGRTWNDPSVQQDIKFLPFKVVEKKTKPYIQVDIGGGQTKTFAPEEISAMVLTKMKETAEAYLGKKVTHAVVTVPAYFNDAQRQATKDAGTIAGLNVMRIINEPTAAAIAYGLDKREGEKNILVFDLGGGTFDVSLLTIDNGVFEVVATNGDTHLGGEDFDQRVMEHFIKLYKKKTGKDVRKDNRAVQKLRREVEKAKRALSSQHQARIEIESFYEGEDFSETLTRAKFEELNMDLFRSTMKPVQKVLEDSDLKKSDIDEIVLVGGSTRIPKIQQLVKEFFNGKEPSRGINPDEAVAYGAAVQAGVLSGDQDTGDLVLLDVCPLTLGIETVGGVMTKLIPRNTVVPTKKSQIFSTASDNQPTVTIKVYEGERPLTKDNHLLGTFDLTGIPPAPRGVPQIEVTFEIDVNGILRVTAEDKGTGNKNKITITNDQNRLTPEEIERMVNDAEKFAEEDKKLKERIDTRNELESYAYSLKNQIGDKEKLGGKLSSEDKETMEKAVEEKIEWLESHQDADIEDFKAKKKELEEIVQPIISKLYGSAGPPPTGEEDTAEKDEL
# Thrombospondin-1 (human) = Thrombospondin-1 (human) (UniProt P07996)
# Calreticulin (human) = Calreticulin (human) (UniProt P27797)
# Sequence of Calreticulin (human) (P27797 18-417 limits assumed): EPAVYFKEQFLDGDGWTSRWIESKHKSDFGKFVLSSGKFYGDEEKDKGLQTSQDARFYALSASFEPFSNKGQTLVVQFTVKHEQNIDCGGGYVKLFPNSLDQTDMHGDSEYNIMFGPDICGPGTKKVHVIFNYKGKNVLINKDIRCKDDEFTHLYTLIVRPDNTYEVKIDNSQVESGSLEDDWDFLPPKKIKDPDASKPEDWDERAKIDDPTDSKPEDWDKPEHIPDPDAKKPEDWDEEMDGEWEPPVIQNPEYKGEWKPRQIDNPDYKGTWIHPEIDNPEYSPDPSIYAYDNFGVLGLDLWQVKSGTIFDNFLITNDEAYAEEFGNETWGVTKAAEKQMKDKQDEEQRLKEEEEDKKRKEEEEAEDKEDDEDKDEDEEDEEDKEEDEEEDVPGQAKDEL
# [9] = target: Centrosomal protein of 120 kDa (Fragment) (human) (UniProt Q8N960)
# Coronin-1A (human) = Coronin-1A (human) (UniProt P31146)
# Hornerin (human) = Hornerin (human) (UniProt Q86YZ3)
# Sequence of Hornerin (human) (Q86YZ3 whole entry): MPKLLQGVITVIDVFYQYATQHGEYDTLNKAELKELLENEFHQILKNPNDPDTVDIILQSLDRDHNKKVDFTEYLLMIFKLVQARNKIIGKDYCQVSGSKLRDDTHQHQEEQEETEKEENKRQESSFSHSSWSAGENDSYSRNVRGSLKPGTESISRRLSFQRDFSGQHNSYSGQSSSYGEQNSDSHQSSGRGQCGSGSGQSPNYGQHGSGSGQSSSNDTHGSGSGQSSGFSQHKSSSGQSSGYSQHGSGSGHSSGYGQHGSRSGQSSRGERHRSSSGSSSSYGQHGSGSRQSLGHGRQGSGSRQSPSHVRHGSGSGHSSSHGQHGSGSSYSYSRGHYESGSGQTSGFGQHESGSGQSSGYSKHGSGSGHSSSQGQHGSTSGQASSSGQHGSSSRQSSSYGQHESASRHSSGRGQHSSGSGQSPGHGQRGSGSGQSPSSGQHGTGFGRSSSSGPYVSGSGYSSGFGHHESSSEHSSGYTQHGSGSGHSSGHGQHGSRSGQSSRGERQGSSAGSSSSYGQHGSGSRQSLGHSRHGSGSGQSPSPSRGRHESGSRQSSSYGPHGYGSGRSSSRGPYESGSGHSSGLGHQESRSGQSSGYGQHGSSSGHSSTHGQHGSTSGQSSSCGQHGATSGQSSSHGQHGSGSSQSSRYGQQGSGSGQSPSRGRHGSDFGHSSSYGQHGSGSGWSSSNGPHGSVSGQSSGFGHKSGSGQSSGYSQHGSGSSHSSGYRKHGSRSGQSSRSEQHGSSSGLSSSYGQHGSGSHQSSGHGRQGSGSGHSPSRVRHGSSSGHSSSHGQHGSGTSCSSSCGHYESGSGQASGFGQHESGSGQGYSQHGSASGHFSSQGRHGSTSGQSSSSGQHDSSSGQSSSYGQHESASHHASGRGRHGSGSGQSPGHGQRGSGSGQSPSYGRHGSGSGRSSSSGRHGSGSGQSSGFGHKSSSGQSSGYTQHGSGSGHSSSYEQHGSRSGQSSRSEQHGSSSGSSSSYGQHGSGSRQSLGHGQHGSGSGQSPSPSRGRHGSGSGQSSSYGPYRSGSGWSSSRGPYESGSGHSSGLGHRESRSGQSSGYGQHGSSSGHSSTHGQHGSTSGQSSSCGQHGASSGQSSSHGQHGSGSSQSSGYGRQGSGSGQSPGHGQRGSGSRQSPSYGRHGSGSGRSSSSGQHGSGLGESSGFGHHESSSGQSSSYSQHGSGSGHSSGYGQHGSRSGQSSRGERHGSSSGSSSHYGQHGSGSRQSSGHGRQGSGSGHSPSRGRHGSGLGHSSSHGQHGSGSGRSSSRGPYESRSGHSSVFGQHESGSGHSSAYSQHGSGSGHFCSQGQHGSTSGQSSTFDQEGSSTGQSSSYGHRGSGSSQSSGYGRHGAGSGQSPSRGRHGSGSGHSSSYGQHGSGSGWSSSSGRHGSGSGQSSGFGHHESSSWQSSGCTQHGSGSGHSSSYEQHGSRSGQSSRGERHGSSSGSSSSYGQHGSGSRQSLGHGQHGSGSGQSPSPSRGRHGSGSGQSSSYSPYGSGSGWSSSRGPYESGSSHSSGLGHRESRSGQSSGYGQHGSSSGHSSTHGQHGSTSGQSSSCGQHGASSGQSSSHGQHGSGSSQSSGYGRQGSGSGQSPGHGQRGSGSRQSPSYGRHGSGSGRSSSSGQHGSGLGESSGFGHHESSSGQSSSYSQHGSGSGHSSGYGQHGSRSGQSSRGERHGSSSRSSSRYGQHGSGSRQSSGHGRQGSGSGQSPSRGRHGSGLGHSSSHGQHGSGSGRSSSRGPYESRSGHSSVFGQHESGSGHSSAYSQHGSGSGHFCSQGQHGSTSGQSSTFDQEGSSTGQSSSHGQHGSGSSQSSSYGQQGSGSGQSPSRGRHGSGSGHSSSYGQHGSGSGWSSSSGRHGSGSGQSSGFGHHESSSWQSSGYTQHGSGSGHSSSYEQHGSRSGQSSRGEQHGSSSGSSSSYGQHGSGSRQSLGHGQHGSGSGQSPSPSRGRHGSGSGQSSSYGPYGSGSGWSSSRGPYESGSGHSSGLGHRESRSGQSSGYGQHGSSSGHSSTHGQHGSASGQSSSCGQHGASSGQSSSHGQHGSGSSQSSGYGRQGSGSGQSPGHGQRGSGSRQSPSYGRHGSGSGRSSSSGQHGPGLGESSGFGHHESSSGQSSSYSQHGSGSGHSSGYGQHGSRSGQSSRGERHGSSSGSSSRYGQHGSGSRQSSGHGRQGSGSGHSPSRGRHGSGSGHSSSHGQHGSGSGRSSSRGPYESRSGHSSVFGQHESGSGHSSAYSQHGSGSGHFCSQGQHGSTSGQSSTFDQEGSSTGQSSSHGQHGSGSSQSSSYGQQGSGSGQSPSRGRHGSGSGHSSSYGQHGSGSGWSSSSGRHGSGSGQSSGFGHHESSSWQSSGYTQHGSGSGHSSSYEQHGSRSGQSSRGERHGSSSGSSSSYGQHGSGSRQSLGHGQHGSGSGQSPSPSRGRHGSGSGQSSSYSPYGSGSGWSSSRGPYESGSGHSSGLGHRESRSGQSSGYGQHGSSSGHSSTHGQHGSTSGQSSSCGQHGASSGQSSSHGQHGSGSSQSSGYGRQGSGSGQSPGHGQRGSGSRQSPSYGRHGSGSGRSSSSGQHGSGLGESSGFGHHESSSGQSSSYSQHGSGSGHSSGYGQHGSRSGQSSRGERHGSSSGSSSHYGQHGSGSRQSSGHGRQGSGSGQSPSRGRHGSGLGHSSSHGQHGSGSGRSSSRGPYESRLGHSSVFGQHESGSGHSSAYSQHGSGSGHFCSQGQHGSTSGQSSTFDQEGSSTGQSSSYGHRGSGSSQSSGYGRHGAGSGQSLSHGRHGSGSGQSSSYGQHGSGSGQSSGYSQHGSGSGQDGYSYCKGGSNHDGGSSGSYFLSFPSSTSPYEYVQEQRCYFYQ
# Thymosin alpha-1 (human) = Thymosin alpha-1 (human) (UniProt P06454)
# Sequence of Thymosin alpha-1 (human) (P06454 other isoform, or with tags, fused parts or gaps limits assumed): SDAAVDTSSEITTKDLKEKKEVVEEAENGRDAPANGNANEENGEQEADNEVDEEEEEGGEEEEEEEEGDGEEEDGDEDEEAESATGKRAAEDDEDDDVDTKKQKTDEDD
# Filamin-A (human) = Filamin-A (human) (UniProt P21333)
# Histone H4 (human) = Histone H4 (human) (UniProt P62805)
# Matrin-3 (human) = Matrin-3 (human) (UniProt A8MXP9)
# [10] = target: 14-3-3 protein zeta/delta (human) (UniProt P63104)
# Sequence of 14-3-3 protein zeta/delta (human) (P63104 whole entry, stated change not applied): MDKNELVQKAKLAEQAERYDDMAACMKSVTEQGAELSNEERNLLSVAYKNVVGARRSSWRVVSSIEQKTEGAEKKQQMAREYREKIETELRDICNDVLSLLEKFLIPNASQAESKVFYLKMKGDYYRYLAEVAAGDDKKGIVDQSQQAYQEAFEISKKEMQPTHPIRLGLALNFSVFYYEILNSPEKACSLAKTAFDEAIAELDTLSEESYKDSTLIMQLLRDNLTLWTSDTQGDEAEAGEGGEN
# [11] = target: Protein disulfide-isomerase A4 (human) (UniProt P13667)
# Talin-1 (human) = Talin-1 (human) (UniProt Q9Y490)
# Myosin-9 (human) = Myosin-9 (human) (UniProt P35579)
# Sequence of Protein disulfide-isomerase (human) (P07237 18-508 limits assumed): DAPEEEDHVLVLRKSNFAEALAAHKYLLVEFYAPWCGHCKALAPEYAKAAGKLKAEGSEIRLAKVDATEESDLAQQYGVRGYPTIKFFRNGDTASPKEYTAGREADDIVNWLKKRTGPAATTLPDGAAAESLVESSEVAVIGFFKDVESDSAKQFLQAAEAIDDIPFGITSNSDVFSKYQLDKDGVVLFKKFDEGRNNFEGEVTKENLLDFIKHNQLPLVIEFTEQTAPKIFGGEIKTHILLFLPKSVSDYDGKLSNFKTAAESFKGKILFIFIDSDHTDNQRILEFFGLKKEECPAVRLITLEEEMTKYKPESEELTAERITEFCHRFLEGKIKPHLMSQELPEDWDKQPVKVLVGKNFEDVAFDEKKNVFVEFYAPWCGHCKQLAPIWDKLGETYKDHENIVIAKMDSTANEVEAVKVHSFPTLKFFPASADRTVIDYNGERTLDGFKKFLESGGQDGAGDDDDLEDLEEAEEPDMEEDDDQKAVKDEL
substance,measurement,setting,value
PIF15 affinity resin (Cys-C6 spacer-PIF15 conjugated to agarose) (peptide),Ave,[1],2
same,Inject 1,[1],3
same,Inject 2,[1],2
same,Inject 3,[1],2
same,Ave,[2],1
same,Inject 1,[2],1
same,Inject 2,[2],2
same,Inject 3,[2],1
same,Ave,[3],3
same,Inject 1,[3],3
same,Inject 2,[3],2
same,Inject 3,[3],3
same,Ave,Protein S100-A8 (human),2
same,Inject 1,Protein S100-A8 (human),2
same,Inject 2,Protein S100-A8 (human),1
same,Inject 3,Protein S100-A8 (human),2
same,Ave,[4],2
same,Inject 1,[4],2
same,Inject 2,[4],2
same,Inject 3,[4],2
same,Ave,[5],3
same,Inject 1,[5],4
same,Inject 2,[5],4
same,Inject 3,[5],2
same,Ave,Annexin A1 (human),1
same,Inject 1,Annexin A1 (human),0
same,Inject 2,Annexin A1 (human),0
same,Inject 3,Annexin A1 (human),2
same,Ave,[6],7
same,Inject 1,[6],6
same,Inject 2,[6],7
same,Inject 3,[6],7
same,Ave,[7],8
same,Inject 1,[7],8
same,Inject 2,[7],7
same,Inject 3,[7],8
same,Ave,Calmodulin (human),4
same,Inject 1,Calmodulin (human),6
same,Inject 2,Calmodulin (human),4
same,Inject 3,Calmodulin (human),3
same,Ave,[8],4
same,Inject 1,[8],6
same,Inject 2,[8],3
same,Inject 3,[8],3
same,Ave,Thrombospondin-1 (human),7
same,Inject 1,Thrombospondin-1 (human),7
same,Inject 2,Thrombospondin-1 (human),5
same,Inject 3,Thrombospondin-1 (human),8
same,Ave,Calreticulin (human),6
same,Inject 1,Calreticulin (human),7
same,Inject 2,Calreticulin (human),4
same,Inject 3,Calreticulin (human),6
same,Ave,[9],1
same,Inject 1,[9],2
same,Inject 2,[9],0
same,Inject 3,[9],0
same,Ave,Coronin-1A (human),2
same,Inject 1,Coronin-1A (human),2
same,Inject 2,Coronin-1A (human),2
same,Inject 3,Coronin-1A (human),1
same,Ave,Hornerin (human),1
same,Inject 1,Hornerin (human),1
same,Inject 2,Hornerin (human),0
same,Inject 3,Hornerin (human),2
same,Ave,Thymosin alpha-1 (human),5
same,Inject 1,Thymosin alpha-1 (human),5
same,Inject 2,Thymosin alpha-1 (human),5
same,Inject 3,Thymosin alpha-1 (human),4
same,Ave,Filamin-A (human),5
same,Inject 1,Filamin-A (human),5
same,Inject 2,Filamin-A (human),3
same,Inject 3,Filamin-A (human),7
same,Ave,Histone H4 (human),2
same,Inject 1,Histone H4 (human),3
same,Inject 2,Histone H4 (human),0
same,Inject 3,Histone H4 (human),2
same,Ave,Matrin-3 (human),1
same,Inject 1,Matrin-3 (human),1
same,Inject 2,Matrin-3 (human),2
same,Inject 3,Matrin-3 (human),1
same,Ave,[10],4
same,Inject 1,[10],4
same,Inject 2,[10],3
same,Inject 3,[10],4
same,Ave,[11],2
same,Inject 1,[11],4
same,Inject 2,[11],1
same,Inject 3,[11],2
same,Ave,Talin-1 (human),6
same,Inject 1,Talin-1 (human),5
same,Inject 2,Talin-1 (human),6
same,Inject 3,Talin-1 (human),8
same,Ave,Myosin-9 (human),10
same,Inject 1,Myosin-9 (human),11
same,Inject 2,Myosin-9 (human),9
same,Inject 3,Myosin-9 (human),10
